Source: paper PMC9834060

How the values were obtained:
Assay in all cases: cryo-EM structure; BlaR1 in LMNG, purified by GraDeR glycerol gradient, desalted into 150 mM sodium chloride, 20 mM HEPES pH 7.5; grids blotted at 4 °C; BlaR1(F284A) also with ampicillin (1 mM, then 250 µM)
[1] = target: S. aureus BlaR1 F284A mutant (BlaR1(F284A)) (S. aureus) (UniProt Q00419)
[2] = target: S. aureus BlaR1 F284A mutant acylated with ampicillin (BlaR1(F284A)–ampicillin) (S. aureus) (UniProt Q00419)
[3] = target: S. aureus BlaR1, wild type (BlaR1(WT)) (S. aureus) (UniProt Q00419)

Substance: S. aureus BlaR1 F284A mutant (BlaR1(F284A)) (from UniProt Q00419 1-585) (receptor)
- stoichiometry N [1]: 2

Substance: S. aureus BlaR1 F284A mutant acylated with ampicillin (BlaR1(F284A)–ampicillin) (from UniProt Q00419 1-585) (receptor)
- stoichiometry N [2]: 2

Substance: S. aureus BlaR1, wild type (BlaR1(WT)) (from UniProt Q00419 1-585) (receptor)
- stoichiometry N [3]: 2
